T1: HigA2 (Mycobacterium tuberculosis H37Rv) (UniProt O53467)
T1 sequence: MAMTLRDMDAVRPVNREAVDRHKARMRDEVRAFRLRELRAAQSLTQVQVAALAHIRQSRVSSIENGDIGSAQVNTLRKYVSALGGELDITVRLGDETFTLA

T2: HigA2 (Mycobacterium tuberculosis H37Rv, UniProt O53467 1-101)
T2 sequence: T1 sequence

B1: Rv0258c-40bp (dsDNA)
DNA 1: CATGGTGTCAGGATCACCCCGCTGTGATCAAAGATCAAGC
DNA 2: GCTTGATCTTTGATCACAGCGGGGTGATCCTGACACCATG
B2: Rv0010c-40bp (dsDNA)
DNA 1: CAGTGGGGATGAATCACATGCGTGTGATTGAGTGACCAAA
DNA 2: TTTGGTCACTCAATCACACGCATGTGATTCATCCCCACTG
B3: Rv3396c-40bp (dsDNA)
DNA 1: TGTGGGGTGTGCATCACCTCCGGGTGATACTGCACCCCGG
DNA 2: CCGGGGTGCAGTATCACCCGGAGGTGATGCACACCCCACA
B4: Rv2434c-40bp (dsDNA)
DNA 1: GGTTCCCATGGGTATCACCTTCGTGATCGCCGGCAGCGTG
DNA 2: CACGCTGCCGGCGATCACGAAGGTGATACCCATGGGAACC
B5: Rv0086-40bp (dsDNA)
DNA 1: CGCCATCGCCGATATCACCGGCGTGATGCGACGGTCGCGG
DNA 2: CCGCGACCGTCGCATCACGCCGGTGATATCGGCGATGGCG
B6: Rv1733c-40bp (dsDNA)
DNA 1: GTGTTGCTGTCGATCACCCCCTCGTGATCGATCACGGTCG
DNA 2: CGACCGTGATCGATCACGAGGGGGTGATCGACAGCAACAC
B7: Rv2044c-40bp (dsDNA)
DNA 1: TGTCGCTCACTACATCACCGGCGTGATCTATCCCGCCGGT
DNA 2: ACCGGCGGGATAGATCACGCCGGTGATGTAGTGAGCGACA

Assays:
[1] = biological target: T1, HigA2 (Mycobacterium tuberculosis H37Rv); assay: EMSA; settings: EMSA: 20 mM Tris-HCl, 150 mM NaCl, pH 8.0, 37 °C, 5 min, HigA2 1 uM (titrated in Fig 4); agarose or native PAGE. Pull-down: streptavidin beads, 4 °C, PBS …
HigA2 = biological target: T2, HigA2; assay: EMSA; essentially complete binding; 1 uM DNA; EMSA: 20 mM Tris-HCl, 150 mM NaCl, pH 8.0, 37 °C, 5 min, HigA2 1 uM (titrated in Fig 4); agarose or native PAGE. Pull-down: streptavidin beads, 4 °C, PBS washes; settings: protein: recombinant; tags: C-terminal 6xHis; chain copies: 2; blunt

| Molecule | binding signal (HigA2) | also measured |
| --- | --- | --- |
| higB2 40 bp |  | binding signal [1]: 5 µM |
| GGCACAGGCTACTGTTTCAACGGCCCGGGTGCGCAGAGTCCGTCCTCGCCTGCCGGCATTTCCTCGACGGTAGCCCCGTCGCCCGCTGCTCTTACCCGGAGGAATATCACCCTTGTGTGATATCGCGTATCGCGCTACTCTGCGACTCTGTGGGGTGGACGGCGGATGTGGAGCGCATCTCCGCCTGGCTCAACGGCTTGGACCGAGAGACCTACGAATTGGTGTTCGCAGCTATCG (double strand) [seq4] |  | binding [1]: binds |
| CGCTGCTCTTACCCGGAGGAATATCACCCTTGTGTGATATCGCGTATCGCGCTACTCTG (double strand) [seq6] |  | binding [1]: binds |
| B1 | ~5 µM |  |
| B2 | ~8 µM |  |
| B3 | ~8 µM |  |
| B4 | ~20 µM |  |
| B5 | ~20 µM |  |
| B6 | ~8 µM |  |
| B7 | ~5 µM |  |
